This assay addresses T1, SARS-CoV-2 full-length spike, WT D614G, expressed on the cell surface (SARS-CoV-2, wild type with D614G, UniProt A0A6H1PJZ3, D614G).
T1 construct: also called wild-type spike
Put plainly: flow cytometry on cells. As to conditions: one partner purified.

B1: REGN10987 (class III) (antibody, V domains shown)
VH: QVQLVESGGGVVQPGRSLRLSCAASGFTFSNYAMYWVRQAPGKGLEWVAVISYDGSNKYYADSVKGRFTISRDNSKNTLYLQMNSLRTEDTAVYYCASGSDYGDYLLVYWGQGTLVTVSS
VL: QSALTQPASVSGSPGQSITISCTGTSSDVGGYNYVSWYQQHPGKAPKLMIYDVSKRPSGVSNRFSGSKSGNTASLTISGLQSEDEADYYCNSLTSISTWVFGGGTKLTVL
Take B1: the binding result was “binds”.

Values taken from article PMC8710476 (Frontiers in Immunology, 2021).
